Data reported in patent publication US20220177587A1, “METHODS AND USES OF VARIANT CD80 FUSION PROTEINS AND RELATED CONSTRUCTS” (Alpine Immune Sciences, Inc., priority 2018, published 2022).
Positions count from the first letter of the chain named. Names may count otherwise.

B1: variant CD80 IgV-Fc D46V/M47I/A71G (Fc fusion)
chain: VIHVTKEVKEVATLSCGHNVSVEELAQTRIYWQKEKKMVLTMMSGVINIWPEYKNRTIFDITNNLSIVILGLRPSDEGTYECVVLKYEKDAFKREHLAEVTLSVKAD
B2: variant CD80 IgV-Fc M47I/A71G (Fc fusion)
chain: B1 chain with V46D
B3: variant CD80 IgV-Fc E35D/L97R (Fc fusion)
chain: B1 chain with E35D, V46D, I47M, G71A, L97R
B4: variant CD80 IgV-Fc E35D/M47L/A71G/D90G (Fc fusion)
chain: B1 chain with E35D, V46D, I47L, D90G
B5: variant CD80 IgV-Fc A26E/V68M/A71G/D90G (Fc fusion)
chain: B1 chain with A26E, V46D, I47M, V68M, D90G
B6: variant CD80 IgV-Fc A26E/M47L/A71G/D90G (Fc fusion)
chain: B1 chain with A26E, V46D, I47L, D90G
B7: variant CD80 IgV-Fc A26E/E35D/V68M/D90G (Fc fusion)
chain: B1 chain with A26E, E35D, V46D, I47M, V68M, G71A, D90G
B8: variant CD80 IgV-Fc A26E/E35D/M47L/D90G (Fc fusion)
chain: B1 chain with A26E, E35D, V46D, I47L, G71A, D90G
B9: variant CD80 IgV-Fc H18Y/M47L/V68M/D90G (Fc fusion)
chain: B1 chain with H18Y, V46D, I47L, V68M, G71A, D90G
B10: variant CD80 IgV-Fc H18Y/A26E/V68M/D90G (Fc fusion)
chain: B1 chain with H18Y, A26E, V46D, I47M, V68M, G71A, D90G
B11: variant CD80 IgV-Fc H18Y/A26E/V68M/A71G (Fc fusion)
chain: B1 chain with H18Y, A26E, V46D, I47M, V68M
B12: variant CD80 IgV-Fc H18Y/A26E/M47L/D90G (Fc fusion)
chain: B1 chain with H18Y, A26E, V46D, I47L, G71A, D90G
B13: variant CD80 IgV-Fc H18Y/A26E/M47L/A71G (Fc fusion)
chain: B1 chain with H18Y, A26E, V46D, I47L
B14: CD80 R29D/Y31L/Q33H/K36G/M38I/T41A/M43R/M47T/E81V/L85R/K89N/A91T/F92P/K93V/R94L/I118V/T120S/T130A/K169E/M174T ECD-Fc (Fc fusion)
chain: VIHVTKEVKEVATLSCGHNVSVEELAQTDILWHKEGKIVLAMRSGDTNIWPEYKNRTIFDITNNLSIVILALRPSDEGTYVCVVRKYENDTPVLEHLAEVTLSVKADFPTPSISDFEVPSSNIRRIICSASGGFPEPHLSWLENGEELNAINTTVSQDPETELYAVSSELDFNTTTNHSFMCLIKYGHLRVNQTFNWNTTKQEHFPDN
B15: CD80 R29D/Y31L/Q33H/K36G/M38I/T41A/M43R/M47T/L70Q/E81V/K89N/A91T/F92P/K93V/R94L/I118V/T120S/I127T/T130A ECD-Fc (Fc fusion)
chain: B14 chain with L70Q, R85L, I127T, E169K, T174M
B16: CD80 H18L/R29D/Y31L/Q33H/K36G/M38I/T41A/M43R/M47T/E81V/L85R/K89N/A91T/F92P/K93V/R94L/F116S/T130A/H188D ECD-Fc (Fc fusion)
chain: B14 chain with H18L, F116S, V118I, S120T, E169K, T174M, H188D
B17: CD80 C16S/H18L/R29D/Y31L/Q33H/K36G/M38I/T41A/M43R/M47T/E81V/L85R/K89N/A91T/F92P/K93V/R94L/T110A/I118V/H188D ECD-Fc (Fc fusion)
chain: B14 chain with C16S, H18L, T110A, S120T, A130T, E169K, T174M, H188D
B18: CD80 R29D/Y31L/Q33H/K36G/M38I/T41A/M43R/M47T/L70Q/D76G/A91G/S103L/I118V/T120S/I127T/T130A ECD-Fc (Fc fusion)
chain: VIHVTKEVKEVATLSCGHNVSVEELAQTDILWHKEGKIVLAMRSGDTNIWPEYKNRTIFDITNNLSIVIQALRPSGEGTYECVVLKYEKDGFKREHLAEVTLLVKADFPTPSISDFEVPSSNIRRITCSASGGFPEPHLSWLENGEELNAINTTVSQDPETELYAVSSKLDFNMTTNHSFMCLIKYGHLRVNQTFNWNTTKQEHFPDN
B19: CD80 Y53C/L85R/K89N/A91T/F92P/K93V/R94L/I118V/T120S/I127T/T130A/K169E ECD-Fc (Fc fusion)
chain: VIHVTKEVKEVATLSCGHNVSVEELAQTRIYWQKEKKMVLTMMSGDMNIWPECKNRTIFDITNNLSIVILALRPSDEGTYECVVRKYENDTPVLEHLAEVTLSVKADFPTPSISDFEVPSSNIRRITCSASGGFPEPHLSWLENGEELNAINTTVSQDPETELYAVSSELDFNMTTNHSFMCLIKYGHLRVNQTFNWNTTKQEHFPDN
B20: CD80 Y53C/L70Q/D90G/T130A/N149D/N152T/H188D ECD-Fc (Fc fusion)
chain: VIHVTKEVKEVATLSCGHNVSVEELAQTRIYWQKEKKMVLTMMSGDMNIWPECKNRTIFDITNNLSIVIQALRPSDEGTYECVVLKYEKGAFKREHLAEVTLSVKADFPTPSISDFEIPTSNIRRIICSASGGFPEPHLSWLENGEELDAITTTVSQDPETELYAVSSKLDFNMTTNHSFMCLIKYGDLRVNQTFNWNTTKQEHFPDN
B21: variant CD80 IgV-Fc V22A/E35D/M47I/Y87N (Fc fusion)
chain: B1 chain with V22A, E35D, V46D, G71A, Y87N

Experiments:
[1] = biological target: CD28, endogenously expressed on Jurkat/IL2 reporter cells (human) (UniProt P10747); assay: flow cytometry on Jurkat/IL2 reporter cells (endogenous CD28), 33.3 nM Fc fusion, PE anti-human Fc
[2] = biological target: human CTLA-4 (huCTLA4), on stably transduced CHO cells (human) (UniProt P16410); assay: flow cytometry on CHO/huCTLA4 cells; MFI relative to WT CD80 (CD80 WT IgV-Fc = 1.0)
[3] = biological target: human PD-L1 (huPD-L1), on stably transduced CHO cells (human) (UniProt Q9NZQ7); assay: flow cytometry; ratio of MFI on CHO/huPD-L1 cells to MFI on Jurkat (CD28) cells
[4] = biological target: human CTLA-4 (huCTLA4), on stably transduced CHO cells (human) (UniProt P16410); assay: flow cytometry on CHO cells stably expressing huCTLA4, 33.3 nM Fc fusion, PE anti-human Fc
[5] = biological target: human PD-L1 (huPD-L1), on stably transduced CHO cells (human) (UniProt Q9NZQ7); assay: flow cytometry on CHO/huPD-L1 cells; MFI relative to WT CD80 (CD80 WT IgV-Fc = 1.0)
[6] = biological target: human PD-L1 (huPD-L1), on stably transduced CHO cells (human) (UniProt Q9NZQ7); assay: flow cytometry on CHO cells stably expressing huPD-L1, 33.3 nM Fc fusion, PE anti-human Fc
[7] = biological target: CD28, endogenously expressed on Jurkat/IL2 reporter cells (human) (UniProt P10747); assay: flow cytometry on Jurkat (CD28) cells; MFI relative to WT CD80 (CD80 WT IgV-Fc = 1.0)
CD28 (human) [8] = biological target: CD28 (human) (UniProt P10747); assay: flow cytometry, Jurkat cells (CD28)
human PD-L1 (human) [9] = biological target: human PD-L1 (human) (UniProt Q9NZQ7); assay: flow cytometry, MFI on PD-L1 cells over MFI on CD28 cells
human CTLA-4 (human) [10] = biological target: human CTLA-4 (human) (UniProt P16410); assay: flow cytometry, CHO cells stably expressing CTLA4
human PD-L1 (human) [11] = biological target: human PD-L1 (human) (UniProt Q9NZQ7); assay: flow cytometry, CHO cells stably expressing PD-L1
CD28 (human) [12] = biological target: CD28 (human) (UniProt P10747); assay: flow cytometry, transfected Expi293F cells
human PD-L1 (human) [13] = biological target: human PD-L1 (human) (UniProt Q9NZQ7); assay: flow cytometry, transfected Expi293F cells
human CTLA-4 (human) [14] = biological target: human CTLA-4 (human) (UniProt P16410); assay: flow cytometry, transfected Expi293F cells
human CTLA-4 (human) [15] = biological target: human CTLA-4 (human) (UniProt P16410); assay: flow cytometry, CHO cells expressing huCTLA4, vs WT CD80 ECD-Fc (R&D)
human PD-L1 (human) [16] = biological target: human PD-L1 (human) (UniProt Q9NZQ7); assay: flow cytometry, CHO cells expressing huPD-L1
human CTLA-4 (human) [17] = biological target: human CTLA-4 (human) (UniProt P16410); assay: flow cytometry, CHO cells expressing huCTLA4
CD28 (human) [18] = biological target: CD28 (human) (UniProt P10747); assay: flow cytometry, Jurkat/IL2 reporter cells (CD28), vs WT CD80 ECD-Fc (R&D)
CD28 (human) [19] = biological target: CD28 (human) (UniProt P10747); assay: flow cytometry, Jurkat/IL2 reporter cells (CD28)

human PD-L1 (huPD-L1), on stably transduced CHO cells (human), sequence (Q9NZQ7 19-290): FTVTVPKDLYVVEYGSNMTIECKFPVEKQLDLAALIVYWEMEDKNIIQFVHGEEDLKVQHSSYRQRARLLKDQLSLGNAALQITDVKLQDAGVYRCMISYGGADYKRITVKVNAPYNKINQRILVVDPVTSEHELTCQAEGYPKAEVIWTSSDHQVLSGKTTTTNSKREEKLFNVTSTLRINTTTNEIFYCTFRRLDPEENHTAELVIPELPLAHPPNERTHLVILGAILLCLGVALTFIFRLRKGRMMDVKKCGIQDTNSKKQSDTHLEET
human PD-L1 (human), sequence (Q9NZQ7 19-290): as above
human CTLA-4 (human), sequence (P16410 36-223): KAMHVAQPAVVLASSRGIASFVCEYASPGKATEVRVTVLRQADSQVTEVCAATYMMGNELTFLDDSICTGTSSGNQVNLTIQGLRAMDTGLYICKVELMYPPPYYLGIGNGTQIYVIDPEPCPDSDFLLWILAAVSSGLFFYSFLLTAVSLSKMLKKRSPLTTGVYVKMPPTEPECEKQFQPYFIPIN
human CTLA-4 (huCTLA4), on stably transduced CHO cells (human), sequence (P16410 36-223): as above

Binder	Fold change to WT CD80 (CD28 (human) [8]) [fold]	MFI at 33.3 nM (CD28 (human) [8]) [MFI]	Ratio of PDL1:CD28 (human PD-L1 (human) [9])	Fold change to WT CD80 (human CTLA-4 (human) [10]) [fold]	MFI at 33.3 nM (human CTLA-4 (human) [10]) [MFI]	Fold change to WT CD80 (human PD-L1 (human) [11]) [fold]	MFI at 33.3 nM (human PD-L1 (human) [11]) [MFI]	MFI (CD28 (human) [12])	parental ratio (CD28 (human) [12])	MFI (human PD-L1 (human) [13])	parental ratio (human PD-L1 (human) [13])	MFI (human CTLA-4 (human) [14])	parental ratio (human CTLA-4 (human) [14])	further results
B1														MFI at 33.3 nM [1]: 1320 MFI; Fold change to WT CD80 [2]: 14.8 fold; Ratio of PDL1:CD28 [3]: 6; MFI at 33.3 nM [4]: 28400 MFI; Fold change to WT CD80 [5]: 104 fold; MFI at 33.3 nM [6]: 7330 MFI; Fold change to WT CD80 [7]: 20.1 fold
B2														MFI at 33.3 nM [1]: 823 MFI; Fold change to WT CD80 [2]: 14.5 fold; Ratio of PDL1:CD28 [3]: 6; MFI at 33.3 nM [4]: 27800 MFI; Fold change to WT CD80 [5]: 72.5 fold; MFI at 33.3 nM [6]: 5100 MFI; Fold change to WT CD80 [7]: 12.5 fold
B3														MFI at 33.3 nM [1]: 44.6 MFI; MFI at 33.3 nM [4]: 22800 MFI; MFI at 33.3 nM [6]: 2610 MFI
B4	30.3	1330	9.1	15.4	20900	277	12100							
B5	27.2	1190	2.7	6.4	8670	73.3	3200							
B6	44.5	1960	6.8	16.2	22000	303	13200							
B7	38.3	1680	4.2	10.2	13900	160	6990							
B8	35.3	1550	6.2	13.4	18200	220	9580							
B9	86.4	3800	5.7	14	19000	499	21800							
B10	54.5	2390	5.4	19	25800	295	12800							
B11	2.3	99.4	69.1	8.3	11300	158	6870							
B12	65.1	2860	3.1	17.3	23500	205	8930							
B13	13.9	611	25.5	16.3	22100	357	15600							
B14								2740	0.06	158000	0.06	2490	0.01	
B15								2110	0.05	14200	0.05	2120	0.01	
B16								1240	0.03	110000	0.03	2090	0.01	
B17								1210	0.03	4500	0.03	1800	0.01	
B18								1910	0.04	3510	0.04	1730	0.01	
B19								1400	0.03	2550	0.03	1460	0.01	
B20								1990	0.04	3290	0.04	3110	0.01	
B21														Fold change to WT CD80 (human CTLA-4 (human) [15]): 1.56 fold; MFI at 33.3 nM (human PD-L1 (human) [16]): 35300 MFI; MFI at 33.3 nM (human CTLA-4 (human) [17]): 246000 MFI; Fold change to WT CD80 (CD28 (human) [18]): 0.85 fold; MFI at 33.3 nM (CD28 (human) [19]): 15300 MFI
